The target in experiment [1] is T1, human IL-1β (human, UniProt P01584 117-269). Briefly: cell-based or functional assay.
In experiment [2] the target is T1, human IL-1β. Briefly: ProteOn bioanalyzer (BioRad). As for the experimental part:
(§1) Matured clones (except P1E8) were tested for affinity towards mouse and human IL-1β using the ProteOn bioanalyzer (BioRad, Hercules, USA).

For experiment [3], the target named is T2, mouse IL-1β (mouse, UniProt P10749 118-269).
T2 construct: also called murine IL-1β
Briefly: ProteOn bioanalyzer (BioRad). As for the experimental part: as §1

Experiment [4] has as its target T2, mouse IL-1β. Briefly: cell-based or functional assay.
Experiment [5] deals with T1, human IL-1β. The experiment can be described thus: cell-based or functional assay. The source holds these as a separate data set.
For experiment [6], the target named is T2, mouse IL-1β. Briefly: ProteOn bioanalyzer (BioRad); end of the range tied to P2D7 by Table 1. How it is done: as §1
Experiment [7] deals with T2, mouse IL-1β. The experiment can be described thus: ProteOn bioanalyzer (BioRad); end of the range tied to P1H8 by Table 1. As for the experimental part:
as §1

For experiment [8], the target named is T2, mouse IL-1β. The experiment can be described thus: cell-based or functional assay. The source holds these as a separate data set.
Experiment [9] deals with T2, mouse IL-1β. Briefly: direct ELISA, OD 460 nm against IgG 2H concentration. (In general: In an ELISA, binding on a coated surface is turned into a signal by an enzyme label.)

Changes are numbered by the printed parent chain.

B1: Fab clone 2H (Fab, V domains shown)
VH: QVQLQQWGAGLLKPSETLSLTCAVYGGSFSDYYWSWIRQPPGKGLEWIGEIDHSGSTNYNPSLKSRVTISVDTSRNQFSLSLSSVTAADTAVYYCARASPSSGWTLDYWGQGTLVTVSS
VL: QSVLTQPPSVSVSPGQTASITCSGDKLGDKFAFWYQQKPGQSPVLVIYLDNKRPSGIPERFSGSNSGNTATLTISGTQALDEADYYCQAWDSNIEVFGGGTKLTVLG
Turning to B1, the “IC50 (concentration inhibiting 50% of IL-1β activity), HEK-Blue IL-1β cells, SEAP reporter” value with human IL-1β [1] was 0.21 nM.

B2: P2D7 (antibody, V domains shown)
VH: B1 VH
VL: QSVLTQPPSVSVSPGQTASITCSGDKLGDKFAFWYQQKPGQSPVLVIYLDNKRPSGIPERFSGSNSGNTATLTISGTQALDEADYYCYAWADTYEVFGGGTK
notes: claim 45 pairs 17 with 14); also called matured Ig P2D7
As a reminder, the Kd is the equilibrium constant for the complex coming apart. A lower Kd goes with a tighter complex. On to B2, for which the Kd with human IL-1β [2] turned out to be 0.0031 nM; with mouse IL-1β [3] it was 0.0109 nM. The “EC50, inhibition of mouse IL-1β-induced IL-6 secretion by MRC5 cells” value in the experiment with mouse IL-1β [4] was 0.158 nM. Besides, the “EC50, inhibition of human IL-1β-induced IL-6 secretion by MRC5 cells” value in the experiment with human IL-1β [5] was 0.00653 nM. Besides, the “fold higher affinity compared to IgG 2H” value in the experiment with mouse IL-1β [6] fell in the range of 3 to 13 fold.

B3: P1E8 (antibody, V domains shown)
VH: B1 VH with R75K, S81K
VL: B1 VL with Q88E, S92A, N93A, I94A
For the molecule B3, the “EC50, inhibition of mouse IL-1β-induced IL-6 secretion by MRC5 cells” value with mouse IL-1β [4] was found to be 0.479 nM. Also, the “EC50, inhibition of human IL-1β-induced IL-6 secretion by MRC5 cells” value in the experiment with human IL-1β [5] is 0.0453 nM.

B4: P2D8 (antibody, V domains shown)
VH: B1 VH
VL: B1 VL with Q88E, D91A, S92D, N93T, I94Y
notes: also called matured Ig P2D8
As to B4, the figures for the dissociation constant (Kd) with human IL-1β [2] and in the experiment with mouse IL-1β [3] were 0.00457 nM and 0.0166 nM, respectively. For the same molecule, in the experiment with mouse IL-1β [4], the “EC50, inhibition of mouse IL-1β-induced IL-6 secretion by MRC5 cells” value worked out at 0.197 nM. For the same molecule, in the experiment with human IL-1β [5], the “EC50, inhibition of human IL-1β-induced IL-6 secretion by MRC5 cells” value was 0.011 nM.

B5: P1D9 (antibody, V domains shown)
VH: B1 VH
VL: B1 VL with Q88Y, S92N, N93A, I94Y
notes: also called matured Ig P1D9
With B5, the Kd worked out at 0.00673 nM with human IL-1β [2] and 0.0236 nM in the experiment with mouse IL-1β [3]. Besides, in the experiment with mouse IL-1β [4], the “EC50, inhibition of mouse IL-1β-induced IL-6 secretion by MRC5 cells” value came to 0.241 nM. Further, the “EC50, inhibition of human IL-1β-induced IL-6 secretion by MRC5 cells” value with human IL-1β [5] was determined as 0.0207 nM.

B6: P1H8 (antibody, V domains shown)
VH: B1 VH
VL: B1 VL with D91A, S92D, N93S, I94F
notes: also called matured Ig P1H8
In the case of B6, the results for the Kd in the experiment with human IL-1β [2] and with mouse IL-1β [3] were 0.0101 nM and 0.0489 nM, respectively. The “EC50, inhibition of mouse IL-1β-induced IL-6 secretion by MRC5 cells” value in the experiment with mouse IL-1β [4] was 0.623 nM. For the same molecule, in the experiment with human IL-1β [5], the “EC50, inhibition of human IL-1β-induced IL-6 secretion by MRC5 cells” value was 0.0215 nM. The “fold higher affinity compared to IgG 2H” value with mouse IL-1β [7] was 3 to 13 fold.

B7: IgG1 2H (antibody, V domains shown)
VH: B1 VH
VL: B1 VL
notes: also called IgG 2H; IgG clone 2H
As usually defined, the EC50 (read off the curve) is the concentration at which the effect is half-maximal. Read a high EC50 (read off the curve) as weaker potency. Take B7: the “inhibition potency (EC50), human IL-1β induced IL-6 production in MRC5 cells” value with human IL-1β [1] was determined as 0.35 nM. The “potency (EC50), neutralization in HEK-Blue cells stimulated with 4 pM human IL-1β” value with human IL-1β [1] was found to be 0.17 nM. Moreover, in the experiment with mouse IL-1β [8], the “potency (EC50), neutralization in HEK-Blue cells stimulated with mouse IL-1β” value was 1.5 nM. The equilibrium dissociation constant (Kd) is 0.0783 nM with human IL-1β [2] and 0.142 nM in the experiment with mouse IL-1β [3]. Moreover, the “EC50, inhibition of mouse IL-1β-induced IL-6 secretion by MRC5 cells” value in the experiment with mouse IL-1β [4] is 1.25 nM. In addition, in the experiment with human IL-1β [5], the “EC50, inhibition of human IL-1β-induced IL-6 secretion by MRC5 cells” value came to 0.148 nM. For the same molecule, the half-maximal effective concentration (EC50 (read off the curve)) with mouse IL-1β [9] is around 0.3 nM.

B8: Fab clone 1H (Fab, V domains shown)
VH: EVQLVQSGAEVKKPGASVKVSCKASGYTFTSYYMHWVRQAPGQGLEWMGLVDPEDGETIYAEKFQGRVTITADTSTDTAYMELSSLRSEDTAVYYCARVEWVAGTEGWGYYFDYWGQGTLVTVSS
VL: NFMLTQPHSVSESPGKTVTIPCTASSGSIANNFVQWYQQRPGSAPTTVIYEDSQRPSGVPDRVSGSIDSSSNSASLTISGLKTEDEADYYCQSYDSANDRVTFGGGTKLIVLG
B8: the “IC50 (concentration inhibiting 50% of IL-1β activity), HEK-Blue IL-1β cells, SEAP reporter” value with human IL-1β [1] came out at 1.31 nM.

B9: IgG1 1H (antibody, V domains shown)
VH: B8 VH
VL: B8 VL
With B9, in the experiment with human IL-1β [1], the “inhibition potency (EC50), human IL-1β induced IL-6 production in MRC5 cells” value came to 3.92 nM and the “potency (EC50), neutralization in HEK-Blue cells stimulated with 4 pM human IL-1β” value was 2.6 nM. For the same molecule, in the experiment with mouse IL-1β [8], the “potency (EC50), neutralization in HEK-Blue cells stimulated with mouse IL-1β” value amounted to 11.5 nM.

Values taken from patent US20190144535A1 (AGENCY FOR SCIENCE TECHNOLOGY AND RESEARCH, published 2019).
